Experiment [1] deals with GST mutant encoding FPheK at position-52 (Schistosoma japonicum (printed only as SjGST)). In words: cross-linking.
In experiment [2] the target is GST mutant encoding FSY at position-52 (Schistosoma japonicum (printed only as SjGST)). The experiment can be described thus: cross-linking.

What is called stoichiometry N is the number of molecules, sites or subunits per partner or assembly. Turning to “GST mutant encoding FPheK at position-52 (enzyme)”, the stoichiometry N in experiment [1] came out at 2. As for “GST mutant encoding FSY at position-52 (enzyme)”, in experiment [2], the stoichiometry N came out at 2.

Source of the values: PMC9117480.
